Reference: patent US20210023171A1 (published 2021)
Like-named read-outs stand apart in the source and are kept apart here. No end group written: not given here. *: point of attachment. DOTA = O=C(O)CN1CCN(CC(=O)O)CCN(CC(=O)*)CCN(CC(=O)O)CC1

What was measured:
[1] = target: T1, αvβ3 integrin on cells (U87MG glioblastoma cells; K562-αvβ3 cells) (UniProt P06756 31-1048; P05106 27-788); assay: competition with ^125I-echistatin on U87MG cells
T1 construct: whole, on cells; also called cell surface αvβ3 integrin

[2] = target: αvβ5 integrin (soluble / detergent-solubilized) (UniProt P06756 31-1048; P18084 24-799); assay: competition with ^125I-echistatin on plate-coated detergent-solubilized integrin
[3] = target: T2, αvβ3 integrin (soluble / detergent-solubilized) (UniProt P06756 31-1048; P05106 27-788); assay: as above
T2 construct: also called integrin αvβ3; soluble αvβ3 integrin

[4] = target: αiibβ3 integrin (soluble / detergent-solubilized) (UniProt P08514 32-1039; P05106 27-788); assay: as above
[5] = target: α5β1 integrin (detergent-solubilized) (UniProt P08648 42-1049; P05556 21-798); assay: as above
[6] = target: T1, αvβ3 integrin on cells (U87MG …); assay: approximate value quoted with the imaging results; U87MG competition assay presumed
[7] = target: T2, αvβ3 integrin (soluble / …); assay: yeast display flow cytometry estimate; integrin not given
[8] = target: T1, αvβ3 integrin on cells (U87MG …); assay: cell-based or functional assay
[9] = target: T1, αvβ3 integrin on cells (U87MG …); assay: cell-based or functional assay; remark: listed apart in the source
[10] = target: T1, αvβ3 integrin on cells (U87MG …)
[11] = target: T1, αvβ3 integrin on cells (U87MG …); assay: competing off ^125I-echistatin, U87MG cells
[12] = target: T1, αvβ3 integrin on cells (U87MG …); assay: competition on U87MG cells against 20 nM recombinant FLAG/His 7C, anti-FLAG flow cytometry
[13] = target: T2, αvβ3 integrin (soluble / …); assay: yeast display, flow cytometry, 50 nM integrin, gross estimate
[14] = target: T1, αvβ3 integrin on cells (U87MG …); assay: competition with ^125I-echistatin on U87MG cells (also express αvβ5, α5β1); unlabeled peptide
[15] = target: T3, αiibβ3 integrin on K562 cells stably transfected with αiibβ3 (UniProt P08514 32-1039; P05106 27-788); assay: titration on K562-αiibβ3 cells up to 5 µM, not saturated
T3 construct: whole, on cells; also called K562-αiibβ3; K562-αiiβ3

[16] = target: T1, αvβ3 integrin on cells (U87MG …); assay: direct equilibrium titration on K562-αvβ3 cells, anti-His flow cytometry
[17] = target: T1, αvβ3 integrin on cells (U87MG …); assay: direct equilibrium titration on U87MG cells, anti-His flow cytometry
[18] = target: T1, αvβ3 integrin on cells (U87MG …); assay: competition of synthetic 7C by recombinant 7C on U87MG cells, performed analogously
[19] = target: T1, αvβ3 integrin on cells (U87MG …); assay: direct equilibrium titration on U87MG cells

T2 sequence (P06756 31-1048, chain 1 of 2): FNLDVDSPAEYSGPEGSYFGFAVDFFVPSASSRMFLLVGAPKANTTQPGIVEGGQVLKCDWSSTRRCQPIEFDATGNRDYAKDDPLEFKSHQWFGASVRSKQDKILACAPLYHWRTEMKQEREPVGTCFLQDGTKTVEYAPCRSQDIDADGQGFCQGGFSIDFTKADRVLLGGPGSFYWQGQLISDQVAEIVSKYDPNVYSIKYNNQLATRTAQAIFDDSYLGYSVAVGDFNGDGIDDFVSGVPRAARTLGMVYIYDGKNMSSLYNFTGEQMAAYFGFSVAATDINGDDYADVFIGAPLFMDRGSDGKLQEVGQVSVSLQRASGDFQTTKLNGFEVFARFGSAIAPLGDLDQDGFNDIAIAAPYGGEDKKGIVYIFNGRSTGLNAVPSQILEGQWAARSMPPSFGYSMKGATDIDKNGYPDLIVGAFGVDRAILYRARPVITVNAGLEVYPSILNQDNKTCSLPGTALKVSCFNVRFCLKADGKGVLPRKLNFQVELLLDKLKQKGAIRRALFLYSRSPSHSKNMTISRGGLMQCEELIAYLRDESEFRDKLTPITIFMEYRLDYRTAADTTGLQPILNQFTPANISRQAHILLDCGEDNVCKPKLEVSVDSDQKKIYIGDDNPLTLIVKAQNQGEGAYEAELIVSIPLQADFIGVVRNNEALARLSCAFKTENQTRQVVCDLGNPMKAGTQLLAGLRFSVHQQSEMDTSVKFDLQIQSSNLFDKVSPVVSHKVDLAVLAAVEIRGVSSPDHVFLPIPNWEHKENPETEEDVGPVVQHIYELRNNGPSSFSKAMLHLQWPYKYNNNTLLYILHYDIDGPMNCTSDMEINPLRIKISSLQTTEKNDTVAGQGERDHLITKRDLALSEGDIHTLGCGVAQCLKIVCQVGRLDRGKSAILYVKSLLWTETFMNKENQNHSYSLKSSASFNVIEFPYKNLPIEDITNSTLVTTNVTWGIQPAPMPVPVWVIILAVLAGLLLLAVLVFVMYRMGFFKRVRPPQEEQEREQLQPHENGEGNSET
T2 sequence (P05106 27-788, chain 2 of 2): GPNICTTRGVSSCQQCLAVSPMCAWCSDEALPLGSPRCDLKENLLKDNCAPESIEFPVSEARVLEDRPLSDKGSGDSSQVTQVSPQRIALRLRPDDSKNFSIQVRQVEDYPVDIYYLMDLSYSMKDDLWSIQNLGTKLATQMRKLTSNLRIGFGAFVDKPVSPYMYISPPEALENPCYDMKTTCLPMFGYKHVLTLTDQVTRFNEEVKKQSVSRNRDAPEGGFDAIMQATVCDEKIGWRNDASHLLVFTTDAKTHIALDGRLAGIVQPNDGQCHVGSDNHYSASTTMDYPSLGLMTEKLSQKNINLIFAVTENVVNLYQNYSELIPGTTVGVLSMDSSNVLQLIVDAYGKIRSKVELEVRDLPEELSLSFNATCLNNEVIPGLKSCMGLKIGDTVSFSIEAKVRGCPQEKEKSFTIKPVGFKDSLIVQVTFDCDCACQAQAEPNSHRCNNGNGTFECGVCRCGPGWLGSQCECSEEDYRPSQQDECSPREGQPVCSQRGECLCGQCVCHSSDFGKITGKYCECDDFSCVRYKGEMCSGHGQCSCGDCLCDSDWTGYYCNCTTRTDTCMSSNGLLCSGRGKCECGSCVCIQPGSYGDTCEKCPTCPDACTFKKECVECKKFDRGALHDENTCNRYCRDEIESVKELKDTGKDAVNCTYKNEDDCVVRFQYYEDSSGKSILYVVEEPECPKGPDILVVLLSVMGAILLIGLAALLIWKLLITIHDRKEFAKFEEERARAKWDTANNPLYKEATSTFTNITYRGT
T1 sequence (P06756 31-1048, chain 1 of 2): as the sequence (P06756 31-1048, chain 1 of 2) above
T1 sequence (P05106 27-788, chain 2 of 2): as the sequence (P05106 27-788, chain 2 of 2) above
αvβ5 integrin (soluble / detergent-solubilized), sequence (P06756 31-1048, chain 1 of 2): as the sequence (P06756 31-1048, chain 1 of 2) above
αvβ5 integrin (soluble / detergent-solubilized), sequence (P18084 24-799, chain 2 of 2): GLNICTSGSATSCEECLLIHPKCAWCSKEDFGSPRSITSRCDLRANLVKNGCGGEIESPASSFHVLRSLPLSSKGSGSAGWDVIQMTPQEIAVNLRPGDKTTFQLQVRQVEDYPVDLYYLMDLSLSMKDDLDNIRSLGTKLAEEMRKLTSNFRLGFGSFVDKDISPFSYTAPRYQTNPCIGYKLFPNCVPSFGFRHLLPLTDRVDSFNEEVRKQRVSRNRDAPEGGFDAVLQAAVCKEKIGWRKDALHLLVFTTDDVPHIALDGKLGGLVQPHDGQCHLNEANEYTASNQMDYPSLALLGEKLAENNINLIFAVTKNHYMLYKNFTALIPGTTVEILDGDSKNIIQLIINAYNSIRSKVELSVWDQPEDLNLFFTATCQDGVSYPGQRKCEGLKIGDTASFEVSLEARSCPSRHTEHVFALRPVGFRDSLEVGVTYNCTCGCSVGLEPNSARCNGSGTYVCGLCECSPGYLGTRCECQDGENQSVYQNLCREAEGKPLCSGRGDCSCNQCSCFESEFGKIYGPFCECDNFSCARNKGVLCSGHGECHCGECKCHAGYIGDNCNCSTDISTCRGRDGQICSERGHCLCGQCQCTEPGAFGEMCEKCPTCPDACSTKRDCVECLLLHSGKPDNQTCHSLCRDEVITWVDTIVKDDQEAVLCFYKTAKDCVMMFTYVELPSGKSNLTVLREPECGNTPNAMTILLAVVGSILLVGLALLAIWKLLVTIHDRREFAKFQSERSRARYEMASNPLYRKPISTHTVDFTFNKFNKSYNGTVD
α5β1 integrin (detergent-solubilized), sequence (P08648 42-1049, chain 1 of 2): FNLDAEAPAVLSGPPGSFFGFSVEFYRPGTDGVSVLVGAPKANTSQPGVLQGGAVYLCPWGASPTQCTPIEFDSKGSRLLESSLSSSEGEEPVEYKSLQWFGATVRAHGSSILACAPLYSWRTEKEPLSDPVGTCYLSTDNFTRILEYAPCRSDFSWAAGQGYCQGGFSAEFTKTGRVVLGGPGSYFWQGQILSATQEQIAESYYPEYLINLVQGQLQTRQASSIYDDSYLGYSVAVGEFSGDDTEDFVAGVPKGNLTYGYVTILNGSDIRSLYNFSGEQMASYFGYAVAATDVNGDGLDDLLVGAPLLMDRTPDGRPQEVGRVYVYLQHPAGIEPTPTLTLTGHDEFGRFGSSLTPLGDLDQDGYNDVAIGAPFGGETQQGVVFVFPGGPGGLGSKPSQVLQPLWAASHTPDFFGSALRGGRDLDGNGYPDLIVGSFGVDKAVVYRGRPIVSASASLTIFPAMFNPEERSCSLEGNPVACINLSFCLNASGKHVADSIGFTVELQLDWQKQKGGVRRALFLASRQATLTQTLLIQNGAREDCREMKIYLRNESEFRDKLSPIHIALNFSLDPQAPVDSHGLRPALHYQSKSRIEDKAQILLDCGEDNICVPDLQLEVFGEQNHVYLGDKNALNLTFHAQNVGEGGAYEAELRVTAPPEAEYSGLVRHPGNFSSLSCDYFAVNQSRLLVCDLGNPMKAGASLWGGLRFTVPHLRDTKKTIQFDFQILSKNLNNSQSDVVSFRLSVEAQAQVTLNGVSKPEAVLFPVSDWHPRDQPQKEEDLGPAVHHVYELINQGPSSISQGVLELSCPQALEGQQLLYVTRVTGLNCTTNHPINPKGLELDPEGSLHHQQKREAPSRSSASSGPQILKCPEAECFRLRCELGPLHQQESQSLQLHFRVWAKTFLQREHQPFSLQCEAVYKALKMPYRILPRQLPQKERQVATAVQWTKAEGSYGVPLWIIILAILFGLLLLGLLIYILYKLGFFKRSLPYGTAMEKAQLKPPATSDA
α5β1 integrin (detergent-solubilized), sequence (P05556 21-798, chain 2 of 2): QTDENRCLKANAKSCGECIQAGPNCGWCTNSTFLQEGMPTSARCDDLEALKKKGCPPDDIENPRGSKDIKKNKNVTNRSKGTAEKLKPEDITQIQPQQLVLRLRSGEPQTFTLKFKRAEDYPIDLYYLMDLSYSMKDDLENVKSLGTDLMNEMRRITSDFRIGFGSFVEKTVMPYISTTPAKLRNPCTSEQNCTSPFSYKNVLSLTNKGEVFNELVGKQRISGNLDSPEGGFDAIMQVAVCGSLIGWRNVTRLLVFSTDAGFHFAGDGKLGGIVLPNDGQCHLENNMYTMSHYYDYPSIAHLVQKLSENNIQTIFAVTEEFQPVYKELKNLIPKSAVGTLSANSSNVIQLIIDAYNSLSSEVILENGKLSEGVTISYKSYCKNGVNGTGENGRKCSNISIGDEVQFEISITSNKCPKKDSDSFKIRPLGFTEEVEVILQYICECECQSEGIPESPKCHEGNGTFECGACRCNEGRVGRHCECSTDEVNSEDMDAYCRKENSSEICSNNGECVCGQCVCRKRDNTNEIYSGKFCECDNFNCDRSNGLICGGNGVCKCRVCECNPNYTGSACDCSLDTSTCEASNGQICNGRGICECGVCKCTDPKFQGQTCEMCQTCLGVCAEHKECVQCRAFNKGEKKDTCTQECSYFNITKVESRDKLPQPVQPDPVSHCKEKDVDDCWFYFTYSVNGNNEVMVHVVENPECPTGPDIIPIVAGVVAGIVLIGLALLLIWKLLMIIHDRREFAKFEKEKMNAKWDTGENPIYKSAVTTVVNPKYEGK

B1: FN-RDG (EETI-based polypeptide with a scrambled RDG sequence, negative control) (peptide)
chain: GCVTGRDGSPASSCSQDSDCLAGCVCGPNGFCG
notes: Inferred; also called scrambled FN-RDG; FN-RDG2
binding result [1]: no binding | binding result [2]: no binding (tested: 50 nM) | binding result [3]: no binding (tested: 50 nM) | binding result [4]: no binding (tested: 50 nM) | binding result [5]: no binding (tested: 50 nM)

{DOTA}-GCPQGRGDWAPTSCSQDSDCRAGCVCGPNGFCG (cysteine pairing not given here, also called Cu-DOTA-knottin 2.5D) [DOTA-conjugated knottin peptide 2.5D]
IC50 [6]: ~20 nM

GCTGRGDSPASSKCKQDSDCLAGCVCGPNGFCG [RGD-EETI #2 (yeast-displayed)]
affinity relative to RGD-EETI #3 [7]: ~0.5 fold

{DOTA}-GCPRPRGDNPPLTCSQDSDCLAGCVCGPNGFCG (cysteine pairing not given here) [DOTA-conjugated knottin peptide 2.5F]
IC50 [6]: ~20 nM

QCESGPCCRNCKFLKEGTICKRARGDDMDDYCNGKTCDCPRNPHKGPAT (ligand, ends and bridges not checked; cysteine pairing not given here) [echistatin (unlabeled)]
adhesion (IC50; nM) of K562-αvβ3 cells to vitronectin-coated wells [8]: 3.2 nM | U87MG cell adhesion to vitronectin, IC50 [9]: 5.8 nM | IC50 [10]: 4.9 nM

{DOTA}-GCVTGRGDSPASSCSQDSDCLAGCVCGPNGFCG (cysteine pairing not given here) [DOTA-conjugated FN-RGD2]
IC50 [6]: ~400 nM

B2: synthetic AgRP peptide 7C (without epitope tags) (peptide)
chain: GCVRLHESCLGQQVPCCDPAATCYCYGRGDNDLRCYCR
notes: also called AgRP Clone 7C; Agouti peptide 7C
IC50 [11]: 23 nM | IC50 [12]: 22 nM

{DOTA}-GCVTGRDGSPASSCSQDSDCLAGCVCGPNGFCG (also: cystine-knot disulfides, pairing not given here) [DOTA-conjugated FN-RDG2]
binding result [2]: no binding | binding result [3]: no binding | binding result [4]: no binding | binding result [5]: no binding

GCVTGRGDSPASSCKQDSDCLAGCVCGPNGFCG (also called FN-RGD; RDG-EETI #3) [RGD-EETI #3 (yeast-displayed)]
Kd [7]: 100 to 200 nM

GCPQGRGDWAPTSCKQDSDCRAGCVCGPNGFCG [2.5D (yeast-displayed EETI-based variant)]
Kd [13]: ~50 nM

B3: Miniprotein 2.5D (synthetic, soluble) (peptide)
chain: GCPQGRGDWAPTSCSQDSDCRAGCVCGPNGFCG
notes: also called knottin peptide 2.5D; RGD-miniprotein 2.5D
IC50 [1]: 19 nM | IC50 [14]: 16 nM

B4: recombinant AgRP peptide 7C (FLAG and hexahistidine tagged) (peptide)
chain: DYKDDDDKGCVRLHESCLGQQVPCCDPAATCYCYGRGDNDLRCYCRHHHHHH
Kd [15]: > 100 nM | Kd [16]: 2.4 nM | Kd [17]: 1.8 nM | adhesion (IC50; nM) of K562-αvβ3 cells to vitronectin-coated wells [8]: 12 nM | IC50 [18]: 23 nM

B5: recombinant engineered AgRP peptide 7A (FLAG and hexahistidine tagged) (peptide)
chain: DYKDDDDKGCVRLHESCLGQQVPCCDPAATCYCSGRGDNDLVCYCRHHHHHH
notes: also called 7A (5E); 5E
Kd [15]: > 100 nM | Kd [16]: 0.89 nM | fold improvement over the worst binder, 6C [19]: 17 fold | Kd [17]: 0.78 nM | adhesion (IC50; nM) of K562-αvβ3 cells to vitronectin-coated wells [8]: 61 nM
